Details in all cases: protein: recombinant; tags: N-terminal His6; label: 5' biotin; hairpin
One data set concerns the target U1A Asp92Glu (UniProt P09012 1-101, D92E). Kind of data set: SPR; ka 4e7 M-1s-1; kd 9e-4 s-1; Biacore 2000 SPR; running buffer with 125 ug/ml yeast tRNA and 62.5 ug/ml acetylated BSA; buffer, salt, pH and temperature as previously described (not given in material). (In general: In SPR one partner is held on a chip, and binding of the other changes the refractive index at the surface.)

The target in a further data set is U1A90 (UniProt P09012 1-90). Kind of data set: SPR; ka 2.3e8 M-1s-1; kd 1.0 s-1; Biacore 2000 SPR; running buffer with 125 ug/ml yeast tRNA and 62.5 ug/ml acetylated BSA; buffer, salt, pH and temperature as previously described (not given in material).
Sequence of U1A90 (P09012 1-90): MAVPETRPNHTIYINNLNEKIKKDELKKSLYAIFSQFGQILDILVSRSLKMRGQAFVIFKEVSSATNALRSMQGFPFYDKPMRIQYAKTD
The target in a further data set is U1A Ile94Pro (UniProt P09012 1-101, I94P). As to the kind of experiment: SPR; ka 1.2e8 M-1s-1; kd 6e-2 s-1; Biacore 2000 SPR; running buffer with 125 ug/ml yeast tRNA and 62.5 ug/ml acetylated BSA; buffer, salt, pH and temperature as previously described (not given in material).
Sequence of U1A Ile94Pro (P09012 1-101 I94P): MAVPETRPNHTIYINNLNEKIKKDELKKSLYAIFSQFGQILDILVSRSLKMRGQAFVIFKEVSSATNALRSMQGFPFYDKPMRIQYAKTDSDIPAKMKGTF
The next data set addresses U1A Asp92Phe (UniProt P09012 1-101, D92F). Kind of data set: SPR; ka 6e7 M-1s-1; kd 1.0e-3 s-1; Biacore 2000 SPR; running buffer with 125 ug/ml yeast tRNA and 62.5 ug/ml acetylated BSA; buffer, salt, pH and temperature as previously described (not given in material).
For a further data set, the target named is U1A95 (UniProt P09012 1-95). As to the kind of experiment: SPR; ka 2.3e7 M-1s-1; kd 1.8e-2 s-1; Biacore 2000 SPR; running buffer with 125 ug/ml yeast tRNA and 62.5 ug/ml acetylated BSA; buffer, salt, pH and temperature as previously described (not given in material).
Sequence of U1A95 (P09012 1-95): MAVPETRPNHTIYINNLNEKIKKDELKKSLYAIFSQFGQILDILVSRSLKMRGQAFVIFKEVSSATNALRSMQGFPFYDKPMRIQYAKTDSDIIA
Another data set addresses U1A Asp92Ala (UniProt P09012 1-101, D92A). As to the kind of experiment: SPR; ka 3.3e7 M-1s-1; kd 1.1e-3 s-1; Biacore 2000 SPR; running buffer with 125 ug/ml yeast tRNA and 62.5 ug/ml acetylated BSA; buffer, salt, pH and temperature as previously described (not given in material).
The target in the next data set is U1A Thr11Ala (UniProt P09012 1-101, T11A). Kind of data set: SPR; ka 7.1e7 M-1s-1; kd 1.5e-2 s-1; Biacore 2000 SPR; running buffer with 125 ug/ml yeast tRNA and 62.5 ug/ml acetylated BSA; buffer, salt, pH and temperature as previously described (not given in material).
Sequence of U1A Thr11Ala (P09012 1-101 T11A): as the sequence (P09012 1-101 I94P) above, with T11A, P94I counted along it

Among the data in article PMC3737524, “The role of the C-terminal helix of U1A protein in the interaction with U1hpII RNA” are Kd values, retold here.

Sequence of U1A Asp92Phe (P09012 1-101 D92F): as the sequence (P09012 1-101 I94P) above, with D92F, P94I counted along it
Sequence of U1A Asp92Ala (P09012 1-101 D92A): as the sequence (P09012 1-101 I94P) above, with D92A, P94I counted along it
Sequence of U1A Asp92Glu (P09012 1-101 D92E): as the sequence (P09012 1-101 I94P) above, with D92E, P94I counted along it

The Kd is the concentration at which binding is half-saturated. As for AGCUUAUCCAUUGCACUCCGGAUGAGCU (structured_RNA) [U1hpII], the Kd turned out to be 20 pM with U1A Asp92Glu; 4500 pM in the data set with U1A90; 500 pM with U1A Ile94Pro; 20 pM with U1A Asp92Phe; 820 pM with U1A95; 41 pM with U1A Asp92Ala. In addition, in the data set with U1A Thr11Ala, the Kd stood at 210 pM.
